# Measured values reported in patent US20120141538A1 (UNIVERSITE PIERRE ET MARIE CURIE PARIS VI, published 2012).
# Where a chain is given by its changes, count along the chain named.
# B1: phage-displayed CX3CL1 mutant with N-terminal sequence AAQGMS (other, not shown: large carriers)
# chain: AAQGMSKCNITCSKMTSKIPVALLIHYQQNQASCGKRAIILETRQHRLFCADPKEQWVKDAMQHLDRQAAALTRNG
# notes: Selected phage clone (agonist selection); not tested singly
# B2: phage-displayed CX3CL1 mutant with N-terminal sequence QLLGVS (other, not shown: large carriers)
# chain: B1 chain with A1Q, A2L, Q3L, M5V
# notes: as for B1
# B3: phage-displayed CX3CL1 mutant with N-terminal sequence GPQAMS (other, not shown: large carriers)
# chain: B1 chain with A1G, A2P, G4A
# notes: as for B1
# B4: phage-displayed CX3CL1 mutant with N-terminal sequence QPRALP (other, not shown: large carriers)
# chain: B1 chain with A1Q, A2P, Q3R, G4A, M5L, S6P
# notes: as for B1
# B5: phage-displayed CX3CL1 mutant with N-terminal sequence QPVALA (other, not shown: large carriers)
# chain: B1 chain with A1Q, A2P, Q3V, G4A, M5L, S6A
# notes: as for B1
# B6: phage-displayed CX3CL1 mutant with N-terminal sequence QPHGVA (other, not shown: large carriers)
# chain: B1 chain with A1Q, A2P, Q3H, M5V, S6A
# notes: as for B1
# B7: phage-displayed CX3CL1 mutant with N-terminal sequence QSLGVS (other, not shown: large carriers)
# chain: B1 chain with A1Q, A2S, Q3L, M5V
# notes: as for B1
# B8: phage-displayed CX3CL1 mutant with N-terminal sequence QPQAVS (other, not shown: large carriers)
# chain: B1 chain with A1Q, A2P, G4A, M5V
# notes: as for B1
# B9: phage-displayed CX3CL1 mutant with N-terminal sequence QFPGVS (other, not shown: large carriers)
# chain: B1 chain with A1Q, A2F, Q3P, M5V
# notes: as for B1
# B10: phage-displayed CX3CL1 mutant with N-terminal sequence QHLGLS (other, not shown: large carriers)
# chain: B1 chain with A1Q, A2H, Q3L, M5L
# notes: as for B1
# B11: phage-displayed CX3CL1 mutant with N-terminal sequence QPVAVA (other, not shown: large carriers)
# chain: B1 chain with A1Q, A2P, Q3V, G4A, M5V, S6A
# notes: as for B1
# B12: phage-displayed CX3CL1 mutant with N-terminal sequence QPQGLA (other, not shown: large carriers)
# chain: B1 chain with A1Q, A2P, M5L, S6A
# notes: as for B1
# B13: phage-displayed CX3CL1 mutant with N-terminal sequence QPMGVA (other, not shown: large carriers)
# chain: B1 chain with A1Q, A2P, Q3M, M5V, S6A
# notes: as for B1
# B14: phage-displayed CX3CL1 mutant with N-terminal sequence QPSALT (other, not shown: large carriers)
# chain: B1 chain with A1Q, A2P, Q3S, G4A, M5L, S6T
# notes: as for B1
# B15: phage-displayed CX3CL1 mutant with N-terminal sequence QPYGMS (other, not shown: large carriers)
# chain: B1 chain with A1Q, A2P, Q3Y
# notes: as for B1
# B16: phage-displayed CX3CL1 mutant with N-terminal sequence QPGGVS (other, not shown: large carriers)
# chain: B1 chain with A1Q, A2P, Q3G, M5V
# notes: as for B1
# B17: phage-displayed CX3CL1 mutant with N-terminal sequence QPGAVS (other, not shown: large carriers)
# chain: B1 chain with A1Q, A2P, Q3G, G4A, M5V
# notes: as for B1
# B18: phage-displayed CX3CL1 mutant with N-terminal sequence QPYGVS (other, not shown: large carriers)
# chain: B1 chain with A1Q, A2P, Q3Y, M5V
# notes: as for B1
# B19: phage-displayed CX3CL1 mutant with N-terminal sequence QLQGLA (other, not shown: large carriers)
# chain: B1 chain with A1Q, A2L, M5L, S6A
# notes: as for B1
# B20: phage-displayed CX3CL1 mutant with N-terminal sequence QPVGLS (other, not shown: large carriers)
# chain: B1 chain with A1Q, A2P, Q3V, M5L
# notes: as for B1
# B21: phage-displayed CX3CL1 mutant with N-terminal sequence QPSALS (other, not shown: large carriers)
# chain: B1 chain with A1Q, A2P, Q3S, G4A, M5L
# notes: as for B1
# B22: phage-displayed CX3CL1 mutant with N-terminal sequence QPVAVS (other, not shown: large carriers)
# chain: B1 chain with A1Q, A2P, Q3V, G4A, M5V
# notes: as for B1
# B23: phage-displayed CX3CL1 mutant with N-terminal sequence QPSGMS (other, not shown: large carriers)
# chain: B1 chain with A1Q, A2P, Q3S
# notes: as for B1
# B24: phage-displayed CX3CL1 mutant with N-terminal sequence NPQALS (other, not shown: large carriers)
# chain: B1 chain with A1N, A2P, G4A, M5L
# notes: as for B1
# Molecular target: T1, human CX3CR1 receptor (human, UniProt P49238 1-355)
# T1 construct: Expressed on stably transfected HEK or CHO cells, or endogenous on human PBMC (CD8+ T cells, NK cells); also called HEK-CX3CR1 cells; CHO-CX3CR1 cells
# T1 sequence: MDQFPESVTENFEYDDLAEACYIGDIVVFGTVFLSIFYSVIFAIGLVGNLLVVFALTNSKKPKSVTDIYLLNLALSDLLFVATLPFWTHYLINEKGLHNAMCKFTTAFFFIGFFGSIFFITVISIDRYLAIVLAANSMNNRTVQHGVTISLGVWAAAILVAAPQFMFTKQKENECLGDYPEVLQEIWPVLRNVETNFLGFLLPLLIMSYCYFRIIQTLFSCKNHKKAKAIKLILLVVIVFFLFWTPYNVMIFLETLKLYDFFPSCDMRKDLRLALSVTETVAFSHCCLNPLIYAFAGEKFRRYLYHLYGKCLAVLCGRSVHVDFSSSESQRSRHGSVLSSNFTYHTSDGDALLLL
# Assay: phage display selection on HEK-CX3CR1 cells, recovery of endocytosed phages
row,Binder,binding result
1,B1,binds
2,B2,binds
3,B3,binds
4,B4,binds
5,B5,binds
6,B6,binds
7,B7,binds
8,B8,binds
9,B9,binds
10,B10,binds
11,B11,binds
12,B12,binds
13,B13,binds
14,B14,binds
15,B15,binds
16,B16,binds
17,B17,binds
18,B18,binds
19,B19,binds
20,B20,binds
21,B21,binds
22,B22,binds
23,B23,binds
24,B24,binds
